Source: patent US20200079868A1 (UNIVERSITY OF SOUTHERN CALIFORNIA, published 2020)

Molecular target: T1, CD20 (B-lymphocyte antigen CD20) on CD20+ human lymphoma cells (Raji, SU-DHL-7) (human, UniProt P11836 1-297)
T1 sequence (looked up): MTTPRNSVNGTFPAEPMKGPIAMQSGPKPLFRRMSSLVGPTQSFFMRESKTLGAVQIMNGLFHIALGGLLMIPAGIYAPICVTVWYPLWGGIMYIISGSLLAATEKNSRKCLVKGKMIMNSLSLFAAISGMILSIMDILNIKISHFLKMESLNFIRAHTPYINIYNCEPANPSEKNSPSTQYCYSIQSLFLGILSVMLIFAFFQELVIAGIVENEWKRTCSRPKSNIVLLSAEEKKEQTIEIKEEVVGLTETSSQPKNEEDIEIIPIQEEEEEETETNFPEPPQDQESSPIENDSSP
Test: cell-based or functional assay

B1: Rituximab (antibody, V domains shown)
VH: QVQLQQPGAELVKPGASVKMSCKASGYTFTSYNMHWVKQTPGRGLEWIGAIYPGNGDTSYNQKFKGKATLTADKSSSTAYMQLSSLTSEDSAVYYCARSTYYGGDWYFNVWGAGTTVTVSA
VL: QIVLSQSPAILSASPGEKVTMTCRASSSVSYIHWFQQKPGSSPKPWIYATSNLASGVPVRFSGSGSGTSYSLTISRVEAEDAATYYCQQWTSNPPTFGGGTKLEIK
In the case of B1, the “IC50, cell viability (MTS/PMS), SU-DHL-7 cells” value is reported as 4 µM.

B2: scFv A192 (anti-CD20 scFv-G(VPGAG)192Y fusion) (scFv)
scFv: QVQLQQPGAELVKPGASVKMSCKASGYTFTSYNMHWVKQTPGRGLEWIGAIYPGNGDTSYNQKFKGKATLTADKSSSTAYMQLSSLTSEDSAVYYCARSTYYGGDWYFNVWGAGTTVTVSAGGGGSGGGGSGGGGSQIVLSQSPAILSASPGEKVTMTCRASSSVSYIHWFQQKPGSSPKPWIYATSNLASGVPVRFSGSGSGTSYSLTISRVEAEDAATYYCQQWTSNPPTFGGGTKLEIKRTGVPGAGVPGAGVPGAGVPGAGVPGAGVPGAGVPGAGVPGAGVPGAGVPGAGVPGAGVPGAGVPGAGVPGAGVPGAGVPGAGVPGAGVPGAGVPGAGVPGAGVPGAGVPGAGVPGAGVPGAGVPGAGVPGAGVPGAGVPGAGVPGAGVPGAGVPGAGVPGAGVPGAGVPGAGVPGAGVPGAGVPGAGVPGAGVPGAGVPGAGVPGAGVPGAGVPGAGVPGAGVPGAGVPGAGVPGAGVPGAGVPGAGVPGAGVPGAGVPGAGVPGAGVPGAGVPGAGVPGAGVPGAGVPGAGVPGAGVPGAGVPGAGVPGAGVPGAGVPGAGVPGAGVPGAGVPGAGVPGAGVPGAGVPGAGVPGAGVPGAGVPGAGVPGAGVPGAGVPGAGVPGAGVPGAGVPGAGVPGAGVPGAGVPGAGVPGAGVPGAGVPGAGVPGAGVPGAGVPGAGVPGAGVPGAGVPGAGVPGAGVPGAGVPGAGVPGAGVPGAGVPGAGVPGAGVPGAGVPGAGVPGAGVPGAGVPGAGVPGAGVPGAGVPGAGVPGAGVPGAGVPGAGVPGAGVPGAGVPGAGVPGAGVPGAGVPGAGVPGAGVPGAGVPGAGVPGAGVPGAGVPGAGVPGAGVPGAGVPGAGVPGAGVPGAGVPGAGVPGAGVPGAGVPGAGVPGAGVPGAGVPGAGVPGAGVPGAGVPGAGVPGAGVPGAGVPGAGVPGAGVPGAGVPGAGVPGAGVPGAGVPGAGVPGAGVPGAGVPGAGVPGAGVPGAGVPGAGVPGAGVPGAGVPGAGVPGAGVPGAGVPGAGVPGAGVPGAGVPGAGVPGAGVPGAGVPGAGVPGAGVPGAGVPGAGVPGAGVPGAGVPGAGVPGAGVPGAGVPGAGVPGAGVPGAGVPGAGVPGAGVPGAGVPGAGVPGAGVPGAGVPGAGVPGAGVPGAGVPGAGVPGAGVPGAGVPGAGVPGAGVPGAGVPGAGVPGAGVPGAGY
modifications: rhodamine (RHD) labeled in the confocal binding assays; site of the label not stated
In the case of B2, the “IC50, cell viability (MTS/PMS), Raji cells” value is reported as 32 µM, the “IC50, cell viability (MTS/PMS), SU-DHL-7 cells” value is reported as 41 µM and the “IC50, cell viability, SU-DHL-7 cells (figure legend; differs from the text)” value is reported as 4 µM.
